Test results from US20160145657A1, “Methods and Materials for Producing 7-Carbon Chemicals via a C9 Route” (INVISTA North America S.á.r.l., priority 2014, published 2016).

B1: SEQ ID NO: 6: Segniliparus rotundus carboxylate reductase, Genbank Accession No. ADG98140.1 (protein)
chain: MTQSHTQGPQASAAHSRLARRAAELLATDPQAAATLPDPEVVRQATRPGLRLAERVDAILSGYADRPALGQRSFQTVKDPITGRSSVELLPTFDTITYRELRERATAIASDLAHHPQAPAKPGDFLASIGFISVDYVAIDIAGVFAGLTAVPLQTGATLATLTAITAETAPTLFAASIEHLPTAVDAVLATPSVRRLLVFDYRAGSDEDREAVEAAKRKIADAGSSVLVDVLDEVIARGKSAPKAPLPPATDAGDDSLSLLIYTSGSTGTPKGAMYPERNVAHFWGGVWAAAFDEDAAPPVPAINITFLPLSHVASRLSLMPTLARGGLMHFVAKSDLSTLFEDLKLARPTNLFLVPRVVEMLYQHYQSELDRRGVQDGTREAEAVKDDLRTGLLGGRILTAGFGSAPLSAELAGFIESLLQIHLVDGYGSTEAGPVWRDGYLVKPPVTDYKLIDVPELGYFSTDSPHPRGELAIKTQTILPGYYKRPETTAEVFDEDGFYLTGDVVAQIGPEQFAYVDRRKNVLKLSQGEFVTLAKLEAAYSSSPLVRQLFVYGSSERSYLLAVIVPTPDALKKFGVGEAAKAALGESLQKIARDEGLQSYEVPRDFIIETDPFTVENGLLSDARKSLRPKLKEHYGERLEAMYKELADGQANELRDIRRGVQQRPTLETVRRAAAAMLGASAAEIKPDAHFTDLGGDSLSALTFSNFLHDLFEVDVPVGVIVSAANTLGSVAEHIDAQLAGGRARPTFATVHGKGSTTIKASDLTLDKFIDEQTLEAAKHLPKPADPPRTVLLTGANGWLGRFLALEWLERLAPAGGKLITIVRGKDAAQAKARLDAAYESGDPKLAGHYQDLAATTLEVLAGDFSEPRLGLDEATWNRLADEVDFISHPGALVNHVLPYNQLFGPNVAGVAEIIKLAITTRIKPVTYLSTVAVAAGVEPSALDEDGDIRTVSAERSVDEGYANGYGNSKWGGEVLLREAHDRTGLPVRVFRSDMILAHQKYTGQVNATDQFTRLVQSLLATGLAPKSFYELDAQGNRQRAHYDGIPVDFTAESITTLGGDGLEGYRSYNVFNPHRDGVGLDEFVDWLIEAGHPITRIDDYDQWLSRFETSLRGLPESKRQASVLPLLHAFARPGPAVDGSPFRNTVFRTDVQKAKIGAEHDIPHLGKALVLKYADDIKQLGLL
B2: SEQ ID NO 7: Chromobacterium violaceum ω-transaminase, Genbank Accession No. AAQ59697.1 (protein)
chain: MQKQRTTSQWRELDAAHHLHPFTDTASLNQAGARVMTRGEGVYLWDSEGNKIIDGMAGLWCVNVGYGRKDFAEAARRQMEELPFYNTFFKTTHPAVVELSSLLAEVTPAGFDRVFYTNSGSESVDTMIRMVRRYWDVQGKPEKKTLIGRWNGYHGSTIGGASLGGMKYMHEQGDLPIPGMAHIEQPWWYKHGKDMTPDEFGVVAARWLEEKILEIGADKVAAFVGEPIQGAGGVIVPPATYWPEIERICRKYDVLLVADEVICGFGRTGEWFGHQHFGFQPDLFTAAKGLSSGYLPIGAVFVGKRVAEGLIAGGDFNHGFTYSGHPVCAAVAHANVAALRDEGIVQRVKDDIGPYMQKRWRETFSRFEHVDDVRGVGMVQAFTLVKNKAKRELFPDFGEIGTLCRDIFFRNNLIMRACGDHIVSAPPLVMTRAEVDEMLAVAERCLEEFEQTLKARGLA

Experiments:
[1] = carboxylate reductase activity, pimelate semialdehyde to heptanedial, NADPH consumption at 340 nm; assay type: biochemical; details: purified enzyme enhanced by sfp gene product, 2 mM pimelate semialdehyde, pH 7.5, room temperature, 20 min; FIG. 11
Method: The N-terminal His-tagged carboxylate reductase of SEQ ID NO: 6 (see Example 3 and FIG. 6) was assayed using pimelate semialdehyde as substrate. The enzyme activity assay was performed in triplicate in a buffer composed of a final concentration of 50 mM HEPES buffer (pH=7.5), 2 mM pimelate semialdehyde, 10 mM MgCl2, 1 mM ATP and 1 mM NADPH. The enzyme activity assay reaction was initiated by adding purified carboxylate reductase and phosphopantetheine transferase or the empty vector control to the assay buffer containing the pimelate semialdehyde and then incubated at room temperature for 20 min. The consumption of NADPH was monitored by absorbance at 340 nm.

[2] = carboxylate reductase activity, pimelate to pimelate semialdehyde, NADPH consumption at 340 nm; assay type: biochemical; details: purified enzyme enhanced by sfp gene product, 2 mM pimelate, pH 7.5, room temperature, 20 min; FIG. 8
Method: A nucleotide sequence encoding a HIS-tag was added to the nucleic acid sequences from Segniliparus rugosus and Segniliparus rotundus that encode the carboxylate reductases of SEQ ID NOs: 4 (EFV11917.1) and 6 (ADG98140.1), respectively (see FIG. 6), such that N-terminal HIS tagged carboxylate reductases could be produced. Each of the modified genes was cloned into a pET Duet expression vector along with a sfp gene encoding a HIS-tagged phosphopantetheine transferase from Bacillus subtilis, both under the T7 promoter. Each expression vector was transformed into a BL21[DE3] E. coli host and the resulting recombinant E. coli strains were cultivated at 37° C. in a 250 mL shake flask culture containing 50 mL LB media and antibiotic selection pressure, with shaking at 230 rpm. Each culture was induced overnight at 37° C. using an auto-induction media.
The pellet from each induced shake flask culture was harvested via centrifugation. Each pellet was resuspended and lysed via sonication, and the cell debris was separated from the supernatant via centrifugation. […]
Enzyme activity assays (i.e., from pimelate to pimelate semialdehyde) were performed in triplicate in a buffer composed of a final concentration of 50 mM HEPES buffer (pH=7.5), 2 mM pimelate, 10 mM MgCl2, 1 mM ATP and 1 mM NADPH. […] The consumption of NADPH was monitored by absorbance at 340 nm. […]

[3] = carboxylate reductase activity, N7-acetyl-7-aminoheptanoate to N7-acetyl-7-aminoheptanal, NADPH consumption at 340 nm; assay type: biochemical; details: purified enzyme enhanced by sfp gene product, 2 mM N7-acetyl-7-aminoheptanoate, pH 7.5, room temperature, 20 min; FIG. 10
Method: The activity of each of the N-terminal His-tagged carboxylate reductases of SEQ ID NOs: 3, 5, and 6 (see Examples 2 and 3, and FIG. 6) for converting N7-acetyl-7-aminoheptanoate to N7-acetyl-7-aminoheptanal was assayed in triplicate in a buffer composed of a final concentration of 50 mM HEPES buffer (pH=7.5), 2 mM N7-acetyl-7-aminoheptanoate, 10 mM MgCl2, 1 mM ATP, and 1 mM NADPH. The assays were initiated by adding purified carboxylate reductase and phosphopantetheine transferase or the empty vector control to the assay buffer containing the N7-acetyl-7-aminoheptanoate then incubated at room temperature for 20 min. The consumption of NADPH was monitored by absorbance at 340 nm.

[4] = literature reports; cited from earlier work
[5] = ω-transaminase activity, reverse direction (7-aminoheptanoate to pimelate semialdehyde), L-alanine formation by RP-HPLC; assay type: biochemical; details: cell free extract, 10 mM 7-aminoheptanoate, 10 mM pyruvate, pH 7.5, 25° C., 4 h; FIG. 13
Method: (§1) A nucleotide sequence encoding an N-terminal His-tag was added to the nucleic acid sequences from Chromobacterium violaceum, Pseudomonas syringae, Rhodobacter sphaeroides, and Vibrio fluvialis encoding the ω-transaminases of SEQ ID NOs: 7, 9, 10 and 12, respectively (see FIG. 6) such that N-terminal HIS tagged ω-transaminases could be produced. Each of the resulting modified genes was cloned into a pET21a expression vector under control of the T7 promoter and each expression vector was transformed into a BL21[DE3] E. coli host. The resulting recombinant E. coli strains were cultivated at 37° C. in a 250 mL shake flask culture containing 50 mL LB media and antibiotic selection pressure, with shaking at 230 rpm. Each culture was induced overnight at 16° C. using 1 mM IPTG.
(§2) The pellet from each induced shake flask culture was harvested via centrifugation. Each pellet was resuspended and lysed via sonication. The cell debris was separated from the supernatant via centrifugation and the cell free extract was used immediately in enzyme activity assays.
Enzyme activity assays in the reverse direction (i.e., 7-aminoheptanoate to pimelate semialdehyde) were performed in a buffer composed of a final concentration of 50 mM HEPES buffer (pH=7.5), 10 mM 7-aminoheptanoate, 10 mM pyruvate and 100 μM pyridoxyl 5′ phosphate. Each enzyme activity assay reaction was initiated by adding cell free extract of the ω-transaminase gene product or the empty vector control to the assay buffer containing the 7-aminoheptanoate and incubated at 25° C. for 4 h, with shaking at 250 rpm. The formation of L-alanine from pyruvate was quantified via RP-HPLC.

[6] = ω-transaminase activity, 7-aminoheptanol to 7-oxoheptanol, L-alanine formation by RP-HPLC; assay type: biochemical
Method: A nucleotide sequence encoding an N-terminal His-tag was added to the Chromobacterium violaceum, Pseudomonas syringae and Rhodobacter sphaeroides nucleic acids encoding the ω-transaminases of SEQ ID NOs: 7, 9 and 10, respectively (see FIG. 6) such that N-terminal HIS tagged ω-transaminases could be produced. The modified genes were cloned into a pET21a expression vector under the T7 promoter. Each expression vector was transformed into a BL21[DE3] E. coli host. Each resulting recombinant E. coli strain were cultivated at 37° C. in a 250 mL shake flask culture containing 50 mL LB media and antibiotic selection pressure, with shaking at 230 rpm. Each culture was induced overnight at 16° C. using 1 mM IPTG.
as §2
Enzyme activity assays in the reverse direction (i.e., 7-aminoheptanol to 7-oxoheptanol) were performed in a buffer composed of a final concentration of 50 mM HEPES buffer (pH=7.5), 10 mM 7-aminoheptanol, 10 mM pyruvate, and 100 μM pyridoxyl 5′ phosphate. Each enzyme activity assay reaction was initiated by adding cell free extract of the ω-transaminase gene product or the empty vector control to the assay buffer containing the 7-aminoheptanol and then incubated at 25° C. for 4 h, with shaking at 250 rpm. The formation of L-alanine was quantified via RP-HPLC.

[7] = ω-transaminase activity, forward direction (pimelate semialdehyde to 7-aminoheptanoate), pyruvate formation by RP-HPLC; assay type: biochemical; details: conclusion from reverse and forward assays of Example 1
Method: as §1, §2
Enzyme activity in the forward direction (i.e., pimelate semialdehyde to 7-aminoheptanoate) was confirmed for the transaminases of SEQ ID NO 9, SEQ ID NO 10 and SEQ ID NO 12. Enzyme activity assays were performed in a buffer composed of a final concentration of 50 mM HEPES buffer (pH=7.5), 10 mM pimelate semialdehyde, 10 mM L-alanine and 100 μM pyridoxyl 5′ phosphate. Each enzyme activity assay reaction was initiated by adding a cell free extract of the ω-transaminase gene product or the empty vector control to the assay buffer containing the pimelate semialdehyde and incubated at 25° C. for 4 h, with shaking at 250 rpm. The formation of pyruvate was quantified via RP-HPLC.

Row | Molecule | acceptance of pimelate semialdehyde as substrate (NADPH consumption) against the empty vector control [1] | acceptance of pimelate as substrate (NADPH consumption) against the empty vector control [2] | acceptance of N7-acetyl-7-aminoheptanoate as substrate (NADPH consumption) against the empty vector control [3] | activity with 7-aminoheptanoate / 7-aminoheptanoic acid (to pimelate semialdehyde) [4] | acceptance of 7-aminoheptanoate as substrate (conversion of pyruvate to L-alanine) against the empty vector control [5] | acceptance of 7-aminoheptanol as substrate (conversion of pyruvate to L-alanine) against the empty vector control ([6]; cell free extract, 10 mM 7-aminoheptanol, 10 mM pyruvate, pH 7.5, 25° C., 4 h, FIG. 17) | acceptance of 7-oxoheptanol as substrate forming 7-aminoheptanol, concluded from reversibility ([6]; inferred from reverse direction assay and Example 1) | reversibility of ω-transaminase activity: pimelate semialdehyde accepted, 7-aminoheptanoate synthesized [7]
1 | B1 | accepted pimelate semialdehyde as substrate | accepted pimelate as substrate | accepted N7-acetyl-7-aminoheptanoate as substrate |  |  |  |  | 
2 | B2 |  |  |  | demonstrated analogous activity accepting 7-aminoheptanoic acid as amino donor | accepted 7-aminoheptanote as substrate | accepted 7-aminoheptanol as substrate | accept 7-oxoheptanol as substrate and form 7-aminoheptanol | accepted pimelate semialdehyde as substrate and synthesized 7-aminoheptanoate as a reaction product
